Data taken from patent US20090181003.

What was measured:
[1] = test system: recombinant S6K1 (highly purified)
[2] = test system: PI3-K (p85a/p110a complex)
PDK1 (recombinant) = test system: T1, PDK1 (recombinant)
T1 sequence (O15530 1-556, species assumed, looked up): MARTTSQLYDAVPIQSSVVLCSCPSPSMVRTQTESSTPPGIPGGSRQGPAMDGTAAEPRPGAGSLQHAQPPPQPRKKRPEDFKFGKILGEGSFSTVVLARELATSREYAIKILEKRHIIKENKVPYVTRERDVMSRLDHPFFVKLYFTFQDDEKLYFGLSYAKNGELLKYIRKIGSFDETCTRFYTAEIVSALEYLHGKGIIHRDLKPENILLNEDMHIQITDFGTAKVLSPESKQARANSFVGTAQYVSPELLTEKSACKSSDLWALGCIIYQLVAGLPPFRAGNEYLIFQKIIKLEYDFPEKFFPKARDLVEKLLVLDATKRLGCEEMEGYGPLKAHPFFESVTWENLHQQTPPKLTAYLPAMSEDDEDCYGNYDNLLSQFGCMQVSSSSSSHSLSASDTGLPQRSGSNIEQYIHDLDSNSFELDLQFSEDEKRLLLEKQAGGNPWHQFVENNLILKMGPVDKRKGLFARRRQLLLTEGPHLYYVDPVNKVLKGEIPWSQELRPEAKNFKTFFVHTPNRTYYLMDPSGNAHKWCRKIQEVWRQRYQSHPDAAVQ

[3] = test system: recombinant S6K2 (highly purified)
Chain of recombinant S6K2 (highly purified) (chain, as listed by the source): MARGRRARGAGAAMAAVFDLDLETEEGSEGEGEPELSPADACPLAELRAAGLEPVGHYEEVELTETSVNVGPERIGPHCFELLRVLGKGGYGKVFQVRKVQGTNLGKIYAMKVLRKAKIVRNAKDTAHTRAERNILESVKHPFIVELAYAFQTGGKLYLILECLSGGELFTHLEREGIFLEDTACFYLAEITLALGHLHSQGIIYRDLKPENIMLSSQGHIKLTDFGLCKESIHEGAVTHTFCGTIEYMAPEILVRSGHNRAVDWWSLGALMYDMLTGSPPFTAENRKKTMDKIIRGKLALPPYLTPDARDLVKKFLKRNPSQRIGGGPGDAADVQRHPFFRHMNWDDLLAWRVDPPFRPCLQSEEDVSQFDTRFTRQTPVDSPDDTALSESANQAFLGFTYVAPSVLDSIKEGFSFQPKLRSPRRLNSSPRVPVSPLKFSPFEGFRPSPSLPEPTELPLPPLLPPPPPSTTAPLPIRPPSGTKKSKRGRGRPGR

Chain of PKB/Akt (recombinant) (P31749 whole entry): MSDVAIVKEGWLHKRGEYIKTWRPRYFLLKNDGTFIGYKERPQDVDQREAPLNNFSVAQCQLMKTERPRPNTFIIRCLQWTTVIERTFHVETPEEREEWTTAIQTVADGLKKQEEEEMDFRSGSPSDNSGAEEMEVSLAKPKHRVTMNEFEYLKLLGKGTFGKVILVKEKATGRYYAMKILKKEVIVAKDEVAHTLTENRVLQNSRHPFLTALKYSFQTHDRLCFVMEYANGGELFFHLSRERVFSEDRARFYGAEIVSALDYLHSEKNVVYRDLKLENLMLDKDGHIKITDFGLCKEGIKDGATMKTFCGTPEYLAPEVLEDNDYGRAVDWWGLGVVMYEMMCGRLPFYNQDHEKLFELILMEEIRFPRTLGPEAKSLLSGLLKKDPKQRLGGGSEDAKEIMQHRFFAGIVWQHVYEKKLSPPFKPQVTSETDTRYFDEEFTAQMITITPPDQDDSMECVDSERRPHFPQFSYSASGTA

Substance: full-length p300
- in vitro acetylation by immunoprecipitated full-length p300 (PKCa (recombinant)): We detected weak, but reproducible acetylation of PKCa
- site of in vitro acetylation (MALDI tandem mass spectrometry of tryptic peptide 509Q-R522) [1]: this peptide was acetylated on the Lysine 516
- in vitro acetylation by immunoprecipitated full-length p300 (PKB/Akt (recombinant)): no acetylation is observed for PKB/Akt, PDK1, PI3-K (p85a/p110a complex) under conditions used
- in vitro acetylation by immunoprecipitated full-length p300 [2]: no acetylation is observed for PKB/Akt, PDK1, PI3-K (p85a/p110a complex) under conditions used
- in vitro acetylation by immunoprecipitated full-length p300 (PDK1 (recombinant)): no acetylation is observed for PKB/Akt, PDK1, PI3-K (p85a/p110a complex) under conditions used
- in vitro acetylation by immunoprecipitated full-length p300 [3]: S6K2 is acetylated in the presence of p300 and AcCoA
- site of in vitro acetylation (MALDI mass spectrometry of Arg-C peptide 297 to 310) [3]: contains a lysine at position 2 (residue 298 in S6K2). This peptide was sequenced and the acetylated lysine was confirmed (data not shown)
